This data set in a line: Hampton Screens I and II, vapor diffusion. Particulars: glycan lost; control: glycosylated GOx from P. pastoris.

1 protein from PMC5745072 can be followed below.

B1: Glucose oxidase (GOx), mutants A2 and F9: Endo H (protein)
parent chain: MQTLLVSSLVVSLAAALPHYIRSNGIEASLLTDPKDVSGRTVDYIIAGGGLTGLTTAARLTENPNISVLVIESGSYESDRGPIIEDLNAYGDIFGSSVDHAYETVELATNNQTALIRSGNGLGGSTLVNGGTWTRPHKAQVDSWETVFGNEGWNWDNVAAYSLQAERARAPNAKQIAAGHYFNASCHGVNGTVHAGPRDTGDDYSPIVKALMSAVEDRGVPTKKDFGCGDPHGVSMFPNTLHEDQVRSDAAREWLLPNYQRPNLQVLTGQYVGKVLLSQNGTTPRAVGVEFGTHKGNTHNVYAKHEVLLAAGSAVSPTILEYSGIGMKSILEPLGIDTVVDLPVGLNLQDQTTATVRSRITSAGAGQGQAAWFATFNETFGDYSEKAHELLNTKLEQWAEEAVARGGFHNTTALLIQYENYRDWIVNHNVAYSELFLDTAGVASFDVWDLLPFTRGYVHILDKDPYLHHFAYDPQYFLNELDLLGQAAATQLARNISNSGAMQTYFAGETIPGDNLAYDADLSAWTEYIPYHFRPNYHGVGTCSMMPKEMGGVVDNAARVYGVQGLRVIDGSIPPTQMSSHVMTVFYAMALKISDAILEDYASMQ
On to B1, for which the “other: crystallisability” value is on record as “increases”.
